From patent publication US20140308307A1 (University of Texas, published 2014)

How the values were obtained:
[1] = target: 30-kDa subunit of the cellular cleavage and polyadenylation specificity factor (CPSF30), human (human) (UniProt O95639); experiment: cell-based or functional assay
[2] = target: NS1A protein of the influenza A/PR8/34 (PR8) virus strain (influenza A virus A/PR8/34, UniProt P03496 1-230); experiment: not described
NS1A protein of the influenza A/PR8/34 (PR8) virus strain, sequence (P03496 whole entry): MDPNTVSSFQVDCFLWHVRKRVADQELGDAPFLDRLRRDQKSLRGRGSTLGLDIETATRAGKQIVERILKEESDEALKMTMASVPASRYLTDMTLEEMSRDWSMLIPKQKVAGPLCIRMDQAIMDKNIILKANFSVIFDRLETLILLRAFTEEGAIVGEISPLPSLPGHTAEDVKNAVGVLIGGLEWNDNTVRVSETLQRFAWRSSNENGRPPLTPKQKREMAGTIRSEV

30-kDa subunit of the cellular cleavage and polyadenylation specificity factor (CPSF30), human (human), sequence (O95639 whole entry): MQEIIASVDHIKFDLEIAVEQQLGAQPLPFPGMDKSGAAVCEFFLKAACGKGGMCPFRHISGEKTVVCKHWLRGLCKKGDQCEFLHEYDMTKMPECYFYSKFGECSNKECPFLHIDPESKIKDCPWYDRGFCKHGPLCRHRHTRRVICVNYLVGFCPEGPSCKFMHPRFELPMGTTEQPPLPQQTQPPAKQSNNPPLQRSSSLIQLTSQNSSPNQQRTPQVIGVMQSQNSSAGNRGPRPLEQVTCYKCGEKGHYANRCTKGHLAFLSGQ

Row | Molecule | rate of replication and virus yield during multiple cycle growth [1] | binding result [2]
1 | HK97 NS1A protein with I at position 106 changed to M and L at 103 changed to F | 100 fold | –
2 | F2F3 fragment of CPSF30 (construct not stated) (other) SGEKTVVCKHWLRGLCKKGDQCEFLHEYDMTKMPECYFYSKFGECSNKECPFLHIDPESKI | – | no binding
